Results: US20050037969A1 (ARBOR VITA, published 2005)
Ends that are not written are not given here. * marks the point of attachment. Biotin = O=C1N[C@H]2[C@H](CS[C@H]2CCCCC(=O)*)N1

Tests used:
Assay in all cases: A/G assays
[1] = target: T1, GST-CASK PDZ domain fusion protein (Homo sapiens, UniProt O14936 486-575)
T1 construct: also called Homo sapiens CASK protein
T1 sequence: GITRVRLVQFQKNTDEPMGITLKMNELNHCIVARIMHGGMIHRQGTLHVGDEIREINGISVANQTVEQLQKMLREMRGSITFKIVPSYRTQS

[2] = target: T2, GST-TAX-IP43 PDZ domain fusion protein (human, UniProt Q13884 109-180)
T2 construct: also called TAX43; not shown: glutathione S-transferase encoded by vector pGEX-3X (Pharmacia)
T2 sequence: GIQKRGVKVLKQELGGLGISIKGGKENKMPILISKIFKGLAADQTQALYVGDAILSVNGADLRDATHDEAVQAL

[3] = target: T3, GST-TAX-IP2 PDZ domain fusion protein (human, UniProt O14908 129-216)
T3 construct: also called TAX-1P2; TAX2; not shown: glutathione S-transferase encoded by vector pGEX-3X (Pharmacia)
T3 chain: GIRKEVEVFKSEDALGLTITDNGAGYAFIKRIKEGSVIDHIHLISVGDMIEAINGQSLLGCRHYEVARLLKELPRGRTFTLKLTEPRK

[4] = target: T4, GST-PTN-4 PDZ domain fusion protein (Homo sapiens (Human), UniProt P29074 517-605)
T4 construct: also called protein-tyrosine phosphatase meg1; not shown: glutathione S-transferase encoded by vector pGEX-3X (Pharmacia)
T4 sequence: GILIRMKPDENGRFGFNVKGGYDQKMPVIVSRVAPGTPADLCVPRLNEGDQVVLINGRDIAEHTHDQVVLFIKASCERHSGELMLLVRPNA

[5] = target: T5, GST-MPP1 PDZ domain fusion protein (Homo sapiens (Human), UniProt Q00013 67-152)
T5 construct: also called p55; 55 Kd erythrocyte membrane protein; not shown: glutathione S-transferase encoded by vector pGEX-3X (Pharmacia)
T5 sequence: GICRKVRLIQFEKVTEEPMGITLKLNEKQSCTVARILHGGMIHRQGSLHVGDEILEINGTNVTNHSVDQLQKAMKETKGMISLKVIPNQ

[6] = target: T6, GST-PDZK1 fusion protein (PDZ domains 2-4) (Homo sapiens, UniProt Q5T2W1 134-457)
T6 construct: not shown: glutathione S-transferase encoded by vector pGEX-3X (Pharmacia)
T6 sequence: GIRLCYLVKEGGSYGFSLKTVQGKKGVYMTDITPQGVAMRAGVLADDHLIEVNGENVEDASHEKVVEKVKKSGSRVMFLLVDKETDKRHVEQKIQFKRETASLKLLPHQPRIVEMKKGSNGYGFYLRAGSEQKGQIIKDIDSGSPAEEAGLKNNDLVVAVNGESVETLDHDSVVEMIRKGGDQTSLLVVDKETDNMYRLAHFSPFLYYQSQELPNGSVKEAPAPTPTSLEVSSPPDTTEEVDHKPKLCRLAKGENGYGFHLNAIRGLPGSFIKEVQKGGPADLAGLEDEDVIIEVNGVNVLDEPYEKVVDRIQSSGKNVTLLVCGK

[7] = target: T7, GST-mouse syntenin fusion protein (Mus musculus, UniProt O08992 108-286)
T7 construct: also called Mus musculus Syntenin; not shown: glutathione S-transferase encoded by vector pGEX-3X (Pharmacia)
T7 chain: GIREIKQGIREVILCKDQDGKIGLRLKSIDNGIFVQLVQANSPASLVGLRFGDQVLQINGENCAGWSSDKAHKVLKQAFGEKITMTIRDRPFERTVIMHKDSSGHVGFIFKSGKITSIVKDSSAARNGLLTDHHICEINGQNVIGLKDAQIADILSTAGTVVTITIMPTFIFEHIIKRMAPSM

[8] = target: T8, GST-TAX-IP40 PDZ domain fusion protein (human, UniProt Q6B4M5 150-252 (rat entry))
T8 construct: also called TAX40; not shown: glutathione S-transferase encoded by vector pGEX-3X (Pharmacia)
T8 sequence: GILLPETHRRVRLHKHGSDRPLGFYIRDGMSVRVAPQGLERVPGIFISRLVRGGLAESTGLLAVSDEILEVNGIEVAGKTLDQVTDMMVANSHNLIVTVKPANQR

[9] = target: T9, X11β PDZ-GST fusion protein (Rattus norvegicus (Rat), UniProt O35431 560-745)
T9 construct: Order of GST and PDZ part and limits not seen in the excerpts
T9 chain: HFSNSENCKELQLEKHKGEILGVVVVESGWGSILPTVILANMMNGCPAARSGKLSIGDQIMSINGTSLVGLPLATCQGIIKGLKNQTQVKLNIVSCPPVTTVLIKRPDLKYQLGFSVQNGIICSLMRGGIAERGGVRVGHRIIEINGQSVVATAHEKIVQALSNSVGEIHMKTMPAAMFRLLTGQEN

[10] = target: T10, TAX-IP2L PDZ-GST fusion protein (Homo sapiens (Human), UniProt Q8TF64 107-197)
T10 construct: Order of GST and PDZ part and limits not seen in the excerpts
T10 sequence: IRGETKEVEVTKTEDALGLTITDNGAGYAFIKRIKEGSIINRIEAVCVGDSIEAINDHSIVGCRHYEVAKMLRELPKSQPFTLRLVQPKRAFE

[11] = target: T11, K559 PDZ-GST fusion protein (Homo sapiens (Human), UniProt Q9Y6V0 4489-4593)
T11 construct: Order of GST and PDZ part and limits not seen in the excerpts
T11 sequence: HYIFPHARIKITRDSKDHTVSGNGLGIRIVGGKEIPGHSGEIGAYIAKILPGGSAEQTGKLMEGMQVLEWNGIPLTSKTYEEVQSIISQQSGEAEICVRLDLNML

[12] = target: T12, ConEn PDZ-GST fusion protein (Homo sapiens (Human), UniProt Q969H4 193-287)
T12 construct: The label ConEn is not explained in the excerpts
T12 sequence: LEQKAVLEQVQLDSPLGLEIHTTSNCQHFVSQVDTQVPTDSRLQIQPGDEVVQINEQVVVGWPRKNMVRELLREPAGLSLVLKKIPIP

[13] = target: T13, NOS1 PDZ-GST fusion protein (Homo sapiens (Human), UniProt P29475 11-100)
T13 construct: Order of GST and PDZ part and limits not seen in the excerpts
T13 sequence (P29475 11-100 limits assumed): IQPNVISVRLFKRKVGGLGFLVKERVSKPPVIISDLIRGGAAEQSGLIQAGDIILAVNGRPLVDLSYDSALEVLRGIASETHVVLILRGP

Measured: binding result

Biotin-TTNNNPNSAVNIKKIFTDV [KV1.3 C-terminal peptide AA33L, biotinylated]
no binding: all assays above

B1: PAG C-terminal peptide AA58L, biotinylated (peptide)
peptide: Biotin-KENDYESISDLQQGRDITRL
notes: also called Phosphoprotein Associated with GEMs
no binding: all assays above

Biotin-SVFSIPTLWSPWPPSSSSQL (also called CD3η; CD3-eta) [CD3n C-terminal peptide AA4L, biotinylated]
no binding: all assays above

Biotin-KDSRPSFVGSSSGHTSTTL (also called CDW128E (IL8RB)) [CDW128B (IL8RB) C-terminal peptide AA29.2L, biotinylated]
no binding: all assays above

Biotin-ARKANMKGSYSLVEAQKSKV (also called CD106) [VCAM1 C-terminal peptide AA17L, biotinylated]
not listed: [5]
no binding: all other assays above

Biotin-KKGTYLTDETHREVKFTSL [CD46 (Form 1) C-terminal peptide AA10L, biotinylated]
no binding: all assays above

Biotin-PSWRRSSLSESENATSLTTF (also called CXCR5) [BLR-1 C-terminal peptide AA45L, biotinylated]
not listed: [6]
no binding: all other assays above

Biotin-AWDDSARAAGGQGLHVTAL [LPAP C-terminal peptide AA30L, biotinylated]
not listed: [13]
no binding: all other assays above

Biotin-LASKSAEEGKQIPDSLSTDL [DOCK2 C-terminal peptide AA40L, biotinylated]
no binding: all assays above

B2: Spectrin (beta) C-terminal peptide AA32L, biotinylated (peptide)
peptide: Biotin-SFPPCGHRENVPGQSLVSFV
notes: Marked (S), sticky; also called Spectrin beta (S); Spectrin β
no binding: [1] | [3] | [6] | [7] | [8] | [9] | [11]
